Measurements published in the supplement of paper PMC9732359.
± gives the uncertainty stated by the source.

Experiment: protein stability index of a GFP-peptide fusion (yeast GPS) (PSI 1-4); higher = more stable; sorted into four equal gates, so the index is relative within each strain
Summary of the method: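 Yeast carrying a pooled library were grown to mid-log phase in leucine-free medium. Each library plasmid expresses Cherry and has a tiled 17-residue yeast protein peptide fused downstream of GFP. Cells were sorted into four equal gates by GFP/Cherry ratio, and plasmids from each gate were PCR-amplified, Illumina-sequenced and assigned to strains by barcode. Summing, across gates, the read frequency times the gate number gave each peptide's protein stability index.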

Sequence | protein stability index (doa10∆) | protein stability index (pdr5∆) | protein stability index (san1∆) | protein stability index (ubr1∆)
GRVKYTKRQKHFAWLPT [POP1] | 2.27 ± 0.051 | 2.48 ± 0.081 | 2.3 ± 0.084 | 2.55 ± 0.039
KNTELSYDFLPLSNIKA [RPN12] | 3.13 ± 0.075 | 2.85 ± 0.074 | 3.08 ± 0.086 | 3.09 ± 0.068
HANAAAVYFADTSGLKI [SIN4] | 2.37 ± 0.067 | 2.56 ± 0.065 | 2.23 ± 0.073 | 2.49 ± 0.053
PFKVFLDIGLQRTTTGA [RPL5] | 1.63 ± 0.07 | 2.04 ± 0.074 | 2.23 ± 0.076 | 1.53 ± 0.053
EAVELPLVQADLYEQIG [RPT3] | 3.17 ± 0.15 | 2.81 ± 0.24 | 3.39 ± 0.12 | 2.93 ± 0.17
SFSLTTFSPSGKLGQID [PRE8] | 3 ± 0.14 | 2.67 ± 0.1 | 3.01 ± 0.074 | 3.08 ± 0.073
RLRKRVTIIPLDKIYTR [SMC2] | 2 ± 0.073 | 1.66 ± 0.095 | 1.84 ± 0.071 | 1.36 ± 0.051
IPTKESLTRDFEQCCKE [YIL149C/MLP2] | 2.81 ± 0.078 | 2.96 ± 0.13 | 2.62 ± 0.088 | 2.88 ± 0.13
DKDSTKEVASLPNKSTI [FAS2] | 3.13 ± 0.089 | 3.1 ± 0.12 | 3.02 ± 0.072 | 3.21 ± 0.14
DKELRKTKFQYKFLDQN [YIL149C/MLP2] | 2.72 ± 0.084 | 2.96 ± 0.075 | 2.96 ± 0.064 | 2.98 ± 0.059
ALENDVATNIVNEDPIF [YML103C/NUP188] | 2.94 ± 0.051 | 3.1 ± 0.068 | 3.04 ± 0.052 | 3.05 ± 0.048
ATGNESQDATKVDATPE [YLR335W/NUP2] | 2.87 ± 0.086 | 3.22 ± 0.082 | 3.04 ± 0.066 | 2.94 ± 0.099
EKYGKQVYDLLKRFPKM [BRR2] |  |  | 2.99 ± 0.19 | 3.31 ± 0.14
RSRKTVKAQRPITGASL [RPL24A] | 3.34 ± 0.077 | 3.22 ± 0.11 | 3.14 ± 0.12 | 3.24 ± 0.088
DDLERLKKIRAHRGIRH [RPS18A] | 1.47 ± 0.18 | 1.31 ± 0.1 | 1.21 ± 0.18 | 1.31 ± 0.18
EPLAIALSMGKSSAFVI [ARP7] | 1.48 ± 0.076 | 2.02 ± 0.071 | 1.67 ± 0.1 | 1.77 ± 0.089
LGLCLVIQIVTGIFMAM [COB] | 1.36 ± 0.053 | 1.2 ± 0.045 | 1.23 ± 0.13 | 1.42 ± 0.045
VTQNVLGLEYIIRLLPI [SRB8] | 1.55 ± 0.12 | 1.68 ± 0.14 | 1.39 ± 0.25 | 1.63 ± 0.21
SIMVELKLPLEINYAFS [SIR3] | 1.31 ± 0.077 | 1.64 ± 0.064 | 1.55 ± 0.12 | 1.5 ± 0.058
TNILISPLNTTTKILGD [YML103C/NUP188] | 2.15 ± 0.058 | 2.42 ± 0.05 | 2.04 ± 0.086 | 1.51 ± 0.033
NFYIQYDPKDGLYKMME [AAR2] |  | 2.21 ± 0.14 |  | 
HDADLEVSMNSIFAMGL [RPN1] | 1.85 ± 0.038 | 2.69 ± 0.045 | 2.65 ± 0.047 | 2.4 ± 0.034
RTKNLVSKMEKAEKTLK [SMC4] | 2.91 ± 0.22 | 3.1 ± 0.056 | 3.21 ± 0.065 | 3.09 ± 0.058
REHSLQLFRTNKVQIMI [PRP28] | 1.61 ± 0.063 | 1.75 ± 0.065 | 1.61 ± 0.084 | 2.07 ± 0.037
GQSEASLLNLLNISPFT [RPP0] | 2.59 ± 0.066 | 2.1 ± 0.057 | 2.29 ± 0.085 | 2.66 ± 0.058
IEINEDNSQDDQDRGAA [RRI2] | 3.24 ± 0.18 | 3.28 ± 0.23 | 3.12 ± 0.12 | 3.04 ± 0.11
FRVNNASINTSATVKTS [ECM29] |  |  | 1.95 ± 0.17 | 
